In patent US20160237164A1 (VIVENTIA BIO, published 2016):
Where two headings read alike, the source gives them in different places.

Experiments:
[1] = molecular target: Epithelial Cell Adhesion Molecule (EpCAM) (human) (UniProt P16422)
[2] = molecular target: Epithelial Cell Adhesion Molecule (EpCAM) (human) (UniProt P16422); remark: listed apart in the source
[3] = molecular target: Epithelial Cell Adhesion Molecule (EpCAM) (human) (UniProt P16422); remark: listed apart in the source
[4] = molecular target: T1, Epithelial Cell Adhesion Molecule (EpCAM) (human, UniProt P16422 24-314)
T1 sequence (looked up): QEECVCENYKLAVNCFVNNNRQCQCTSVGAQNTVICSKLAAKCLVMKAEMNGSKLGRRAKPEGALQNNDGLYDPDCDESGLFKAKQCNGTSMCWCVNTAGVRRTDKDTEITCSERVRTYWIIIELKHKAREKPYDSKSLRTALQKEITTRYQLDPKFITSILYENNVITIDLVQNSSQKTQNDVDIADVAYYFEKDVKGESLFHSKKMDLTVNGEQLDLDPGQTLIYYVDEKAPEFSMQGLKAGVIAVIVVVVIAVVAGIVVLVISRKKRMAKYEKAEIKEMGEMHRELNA

[5] = molecular target: T1, Epithelial Cell Adhesion Molecule …; experiment: cell-based or functional assay
[6] = molecular target: T1, Epithelial Cell Adhesion Molecule …; experiment: flow cytometry on HT-29 cells (EpCAM-positive), purified protein at 100 ng/mL
[7] = molecular target: T1, Epithelial Cell Adhesion Molecule …; experiment: flow cytometry on MCF-7 cells (EpCAM-positive), purified protein at 100 ng/mL
[8] = molecular target: T1, Epithelial Cell Adhesion Molecule …; experiment: flow cytometry on CAL-27 cells (EpCAM-positive), purified protein at 100 ng/mL
[9] = molecular target: T1, Epithelial Cell Adhesion Molecule …; experiment: flow cytometry on OVCAR-3 cells (EpCAM-positive), purified protein at 100 ng/mL
[10] = molecular target: T1, Epithelial Cell Adhesion Molecule …; remark: listed apart in the source
[11] = molecular target: T1, Epithelial Cell Adhesion Molecule …; remark: listed apart in the source
[12] = molecular target: T2, Epithelial Cell Adhesion Molecule (EpCAM) (human, UniProt P16422 24-314); experiment: flow cytometry (Lineweaver-Burk), Cal-27 cells
T2 chain: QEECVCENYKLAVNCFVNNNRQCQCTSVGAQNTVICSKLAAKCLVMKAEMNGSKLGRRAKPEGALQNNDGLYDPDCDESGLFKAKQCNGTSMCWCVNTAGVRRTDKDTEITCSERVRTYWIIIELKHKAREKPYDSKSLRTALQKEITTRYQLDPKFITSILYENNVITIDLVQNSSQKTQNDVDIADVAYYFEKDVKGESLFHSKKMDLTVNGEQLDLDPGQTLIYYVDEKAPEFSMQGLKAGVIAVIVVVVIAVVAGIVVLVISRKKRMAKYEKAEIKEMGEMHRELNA

[13] = molecular target: T1, Epithelial Cell Adhesion Molecule …; experiment: flow cytometry titration (3.2 to 1000 ng/mL) on CAL-27 cells, Lineweaver-Burk plot
[14] = molecular target: T1, Epithelial Cell Adhesion Molecule …; remark: listed apart in the source

Molecule: VB6-845 VH-S93 / VL-WT (Fab)
- MF (median fluorescence, % of WT) [1]: 35 % of WT

Molecule: VB6-845 VH-WT / VL-FR2 (H39-S42), second version (Fab)
- MF (median fluorescence, % of WT) [2]: 68 % of WT

Molecule: VB6-845 VH-WT / VL-FR2 (D41-Q42), first version (Fab)
- MF (median fluorescence, % of WT) [3]: 84 % of WT

Molecule: VB6-845 VH-WT / VL-CDR2 (E51-H53-Q55) (Fab)
- MF (median fluorescence, % of WT) [2]: 70 % of WT

Molecule: VB6-845 VH-N53 / VL-WT (Fab)
- MF (median fluorescence, % of WT) [1]: 23 % of WT

B1: VB6-845-Algo (VH-IIr-N35-Q98 / VL-IIr-KSHI) (Fab)
heavy: EVQLQQSGPGLVQPGGSVRISCAASGYTFTAYGMNWVRQAPGKGLEWMGWINTYTGESTYADSFKGRFEFSLDTHNSSAYLQIQSLREEDTAVYYCARFAIQGDYWGQGTLVTVSSASTKGPSVFPLAPSSKSTSGGTAALGCLVKDYFPEPVTVSWNSGALTSGVHTFPAVLQSSGLYSLSSVVTVPSSSLGTQTYICNVNHKPSNTKVDKKVEPKSC
light: DIQMTQSPSSLSASVGDRVTITCKSTKSLLHSNGITYLYWYQQKPGSAPKLLIYQMSHLASGVPSRFSSSGSGTDFTLTISSLQPEDFATYYCAQNLEIPRTFGQGTKVEIKRTVAAPSVFIFPPSDEQLKSGTASVVCLLNNFYPREAKVQWKVDNALQSGNSQESVTEQDSKDSTYSLSSTLTLSKADYEKHKVYACEVTHQGLSSPVTKSFNRGECTRHRQPRGWEQKYNTVSFNLGEAYEYPTFIQDLRNELAKGTPVCQLPVTLQTIADDKRFVLVDITTTSKKTVKVAIDVTDVYVVGYQDKWDGKDRAVFLDKVPTVATSKLFPGVTNRVTLTFDGSYQKLVNAAKADRKALELGVNKLEFSIEAIHGKTINGQEAAKFFLIVIQMVSEAARFKYIETEVVDRGLYGSFKPNFKVLNLENNWGDISDAIHKSSPQCTTINPALQLISPSNDPWVVNKVSQISPDMGILKFKSSK
- MF (median fluorescence, % of WT) [4]: 94 % of WT
- IC50 (nM), MTS cytotoxicity assay, CAL-27 (EpCAM-positive) [5]: 18 nM
- IC50 (nM), MTS cytotoxicity assay, HT-29 (EpCAM-positive) [5]: 15 nM
- IC50 (nM), MTS cytotoxicity assay, MCF-7 (EpCAM-positive) [5]: 2.3 nM
- IC50 (nM), MTS cytotoxicity assay, OVCAR-3 (EpCAM-positive) [5]: 2.9 nM
- FI (fold increase) at 100 ng/mL [6]: 41.6 fold
- FI (fold increase) at 100 ng/mL [7]: 27.7 fold
- FI (fold increase) at 100 ng/mL [8]: 14 fold
- FI (fold increase) at 100 ng/mL [9]: 40.9 fold

B2: VB6-845 VH-WT / VL-IIr-KSHI (Fab)
heavy: EVQLVQSGPGLVQPGGSVRISCAASGYTFTNYGMNWVKQAPGKGLEWMGWINTYTGESTYADSFKGRFTFSLDTSASAAYLQINSLRAEDTAVYYCARFAIKGDYWGQGTLLTVSSASTKGPSVFPLAPSSKSTSGGTAALGCLVKDYFPEPVTVSWNSGALTSGVHTFPAVLQSSGLYSLSSVVTVPSSSLGTQTYICNVNHKPSNTKVDKKVEPKSC
light: DIQMTQSPSSLSASVGDRVTITCKSTKSLLHSNGITYLYWYQQKPGSAPKLLIYQMSHLASGVPSRFSSSGSGTDFTLTISSLQPEDFATYYCAQNLEIPRTFGQGTKVEIKRTVAAPSVFIFPPSDEQLKSGTASVVCLLNNFYPREAKVQWKVDNALQSGNSQESVTEQDSKDSTYSLSSTLTLSKADYEKHKVYACEVTHQGLSSPVTKSFNRGECTRHRQPRGWEQKYNTVSFNLGEAYEYPTFIQDLRNELAKGTPVCQLPVTLQTIADDKRFVLVDITTTSKKTVKVAIDVTDVYVVGYQDKWDGKDRAVFLDKVPTVATSKLFPGVTNRVTLTFDGSYQKLVNAAKADRKALELGVNKLEFSIEAIHGKTINGQEAAKFFLIVIQMVSEAARFKYIETEVVDRGLYGSFKPNFKVLNLENNWGDISDAIHKSSPQCTTINPALQLISPSNDPWVVNKVSQISPDMGILKFKSSK
- MF (median fluorescence, % of WT) [10]: 89 % of WT

B3: VB6-845 VH-IIr-N35-Q98 / VL-WT (Fab)
heavy: EVQLQQSGPGLVQPGGSVRISCAASGYTFTAYGMNWVRQAPGKGLEWMGWINTYTGESTYADSFKGRFEFSLDTHNSSAYLQIQSLREEDTAVYYCARFAIQGDYWGQGTLVTVSSASTKGPSVFPLAPSSKSTSGGTAALGCLVKDYFPEPVTVSWNSGALTSGVHTFPAVLQSSGLYSLSSVVTVPSSSLGTQTYICNVNHKPSNTKVDKKVEPKSC
light: DIQMTQSPSSLSASVGDRVTITCRSTKSLLHSNGITYLYWYQQKPGKAPKLLIYQMSNLASGVPSRFSSSGSGTDFTLTISSLQPEDFATYYCAQNLEIPRTFGQGTKVELKRTVAAPSVFIFPPSDEQLKSGTASVVCLLNNFYPREAKVQWKVDNALQSGNSQESVTEQDSKDSTYSLSSTLTLSKADYEKHKVYACEVTHQGLSSPVTKSFNRGECTRHRQPRGWEQKYNTVSFNLGEAYEYPTFIQDLRNELAKGTPVCQLPVTLQTIADDKRFVLVDITTTSKKTVKVAIDVTDVYVVGYQDKWDGKDRAVFLDKVPTVATSKLFPGVTNRVTLTFDGSYQKLVNAAKADRKALELGVNKLEFSIEAIHGKTINGQEAAKFFLIVIQMVSEAARFKYIETEVVDRGLYGSFKPNFKVLNLENNWGDISDAIHKSSPQCTTINPALQLISPSNDPWVVNKVSQISPDMGILKFKSSK
- MF (median fluorescence, % of WT) [11]: 100 % of WT

B4: VB5-845-WT (non-deimmunized VB5-845 Fab fragment) (Fab, V domains shown)
VH: EVQLVQSGPGLVQPGGSVRISCAASGYTFTNYGMNWVKQAPGKGLEWMGWINTYTGESTYADSFKGRFTFSLDTSASAAYLQINSLRAEDTAVYYCARFAIKGDYWGQGTLLTVSS
VL: DIQMTQSPSSLSASVGDRVTITCRSTKSLLHSNGITYLYWYQQKPGKAPKLLIYQMSNLASGVPSRFSSSGSGTDFTLTISSLQPEDFATYYCAQNLEIPRTFGQGTKVELKR
- Kd [12]: 1.46 nM
- Kd [13]: 1.56 nM

B5: VB5-845-Algo Fab (Fab, V domains shown)
VH: EVQLQQSGPGLVQPGGSVRISCAASGYTFTAYGMNWVRQAPGKGLEWMGWINTYTGESTYADSFKGRFEFSLDTHNSSAYLQIQSLREEDTAVYYCARFAIQGDYWGQGTLVTVSS
VL: DIQMTQSPSSLSASVGDRVTITCKSTKSLLHSNGITYLYWYQQKPGSAPKLLIYQMSHLASGVPSRFSSSGSGTDFTLTISSLQPEDFATYYCAQNLEIPRTFGQGTKVEIKR
- Kd [13]: 1.31 nM

B6: VB6-845-(VH-IIr-CDR1/VL-Ir-Q50) (Fab)
chain 1: EVQLVQSGPGLVQPGGSVRISCAASGYTFTNYGMNWVKQAPGKGLEWMGWINTYTGESTYADSFKGRFTFSLDTSASAAYLQINSLRAEDTAVYYCARFAIKGDYWGQGTLLTVSSASTKGPSVFPLAPSSKSTSGGTAALGCLVKDYFPEPVTVSWNSGALTSGVHTFPAVLQSSGLYSLSSVVTVPSSSLGTQTYICNVNHKPSNTKVDKKVEPKSCTRHRQPRGWEQLYNTVSFNLGEAYEYPTFIQDLRNELAKGTPVCQLPVTLQTIADDKRFVLVDITTTSKKTVKVAIDVTDVYVVGYQDKWDGKDRAVFLDKVPTVATSKLFPGVTNRVTLTFDGSYQKLVNAAKADRKALELGVNKLEFSIEAIHGKTINGQEAAKFFLIVIQMVSEAARFKYIETEVVDRGLYGSFKPNFKVLNLENNWGDISDAIHKSSPQCTTINPALQLISPSNDPWVVNKVSQISPDMGILKFKSSK
chain 2: HHHHHHDIQMTQSPSSLSASVGDRVTITCRSTKSLLHSNGITYLYWYQQKPGKAPKLLIYQMSNLASGVPSRFSSSGSGTDFTLTISSLQPEDFATYYCAQNLEIPRTFGQGTKVELKRTVAAPSVFIFPPSDEQLKSGTASVVCLLNNFYPREAKVQWKVDNALQSGNSQESVTEQDSKDSTYSLSSTLTLSKADYEKHKVYACEVTHQGLSSPVTKSFNRGEC
- MF (median fluorescence, % of WT) [14]: 78 % of WT
